Measured values: doi:10.1101/755504 (bioRxiv, 2019)

Target: T1, His-D6PK (Arabidopsis thaliana, UniProt Q9FG74 1-498)
T1 sequence (looked up): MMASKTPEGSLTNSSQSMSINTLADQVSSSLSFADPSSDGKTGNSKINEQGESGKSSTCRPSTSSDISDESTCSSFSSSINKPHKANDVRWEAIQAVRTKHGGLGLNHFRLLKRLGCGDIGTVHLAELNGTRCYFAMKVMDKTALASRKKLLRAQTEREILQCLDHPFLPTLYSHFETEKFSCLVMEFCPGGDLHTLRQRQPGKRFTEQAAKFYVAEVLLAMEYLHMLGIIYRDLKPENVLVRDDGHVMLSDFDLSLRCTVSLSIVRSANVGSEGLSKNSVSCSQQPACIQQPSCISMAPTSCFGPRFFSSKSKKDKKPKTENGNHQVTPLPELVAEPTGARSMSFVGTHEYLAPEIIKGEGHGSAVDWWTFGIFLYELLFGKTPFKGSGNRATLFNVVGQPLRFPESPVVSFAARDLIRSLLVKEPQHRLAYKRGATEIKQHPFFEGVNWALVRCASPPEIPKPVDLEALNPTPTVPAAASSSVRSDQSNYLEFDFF
Experiment: pull-down

binding result: binds
B1: GST-PDK1.1 (enzyme, Arabidopsis thaliana, UniProt Q9XF67 1-491, looked up)
chain: MLAMEKEFDSKLVLQGNSSNGANVSRSKSFSFKAPQENFTSHDFEFGKIYGVGSYSKVVRAKKKETGTVYALKIMDKKFITKENKTAYVKLERIVLDQLEHPGIIKLYFTFQDTSSLYMALESCEGGELFDQITRKGRLSEDEARFYTAEVVDALEYIHSMGLIHRDIKPENLLLTSDGHIKIADFGSVKPMQDSQITVLPNAASDDKACTFVGTAAYVPPEVLNSSPATFGNDLWALGCTLYQMLSGTSPFKDASEWLIFQRIIARDIKFPNHFSEAARDLIDRLLDTEPSRRPGAGSEGYVALKRHPFFNGVDWKNLRSQTPPKLAPDPASQTASPERDDTHGSPWNLTHIGDSLATQNEGHSAPPTSSESSGSITRLASIDSFDSRWQQFLEPGESVLMISAVKKLQKITSKKVQLILTNKPKLIYVDPSKLVVKGNIIWSDNSNDLNVVVTSPSHFKICTPKKVLSFEDAKQRASVWKKAIETLQNR
